The source of these data is the DeepSol protein solubility set.

This data set in a line: soluble on expression in E. coli; label from the status in PepcDB or PDB records.
On to “GHHHHHHHHHHSSGHIEGRHMRVLFVSSPGIGHLFPLIQLAWGFRTAGHDVLIAVAEHADRAAAAGLEVVDVAPDYSAVKVFEQVAKDNPRFAETVATRPAIDLEEWGVQIAAVNRPLVDGTMALVDDYRPDLVVYEQGATVGLLAADRAGVPAVQRNQSAWRTRGMHRSIASFLTDLMDKHQVSLPEPVATIESFPPSLLLEAEPEGWFMRWVPYGGGAVLGDRLPPVPARPEVAITMGTIELQAFGIGAVEPIIAAAGEVDADFVLALGDLDISPLGTLPRNVRAVGWTPLHTLLRTCTAVVHHGGGGTVMTAIDAGIPQLLAPDPRDQFQHTAREAVSRRGIGLVSTSDKVDADLLRRLIGDESLRTAAREVREEMVALPTPAETVRRIVERISG”, for which the “soluble on expression in E. coli” value was “soluble”.
Take “MQQNKCPDCEVELEWTGQYHCGQCESDFKKVGFCPDCGAELEKLQACGAANYFCNTCNELKSKSRVRFEFQKISLEHHHHHH”: the “soluble on expression in E. coli” value was “soluble”.
Consider “MGSDKIHHHHHHMKSPQELRNKLFRYWRQPGLRLRQLLDQAAWPLVLSIGKPTAQVFSSQVAMVQKHVEAWREVSVGKVEWKRIGYRSGADLVSIPTQWCLRSPTEWITAMSNEEISAQYMSLEHLVEHLPAVYRRLIITRPSLWKNKRSEEVIQVAGLAQRLSPGCAQGLPLRLLSGYGVDTKFFERNELLLSKMLDVRYEGEASRQGLCDFLDAYDDTSHWVLLAPLEAGLLPFKRQLVTTSELGRASLPGTRLLIVENQKCLHLLRELPGTIAILGCGSDLAWLGSAQLHGKSIAYWGDVDTWGMRMLARARSRFNAVIPLLMTATVFDAHSDFTVPEPIRAQDTPPADLTPSETALFKRLVQCSRGRLEQEFISREVVWAALEEWIQRRRG”, for which the “soluble on expression in E. coli” value is listed as “not soluble”.
Regarding “MGSSHHHHHHSSGLVPRGSVGGCLAKDGLQQSKCPDTTPKRRRASSLSRDAERRAYQWCREYLGGAWRRVQPEELRVYPVSGGLSNLLFRCSLPDHLPSVGEEPREVLLRLYGAILQGVDSLVLESVMFAILAERSLGPQLYGVFPEGRLEQYIPSRPLKTQELREPVLSAAIATKMAQFHGMEMPFTKEPHWLFGTMERYLKQIQDLPPTGLPEMNLLEMYSLKDEMGNLRKLLESTPSPVVFCHNDIQEGNILLLSEPENADSLMLVDFEYSSYNYRGFDIGNHFCEWVYDYTHEEWPFYKARPTDYPTQEQQLHFIRHYLAEAKKGETLSQEEQRKLEEDLLVEVSRYALASHFFWGLWSILQASMSTIEFGYLDYAQSRFQFYFQQKGQLTSVHSSS”, the “soluble on expression in E. coli” value was “soluble”.
Consider “MGSDKIHHHHHHVPSACRLSTCRFQDVCLSQIAAYWPARFTRTSEGVGKMAEMVTIKEADLIESVADALQYISYFHPMDYIRALGEAYKAEQGPAAKDAIAQILTNSRMCAEGHRPICQDTGIVNVFIEWGQDCRLESDLSLQDVVDEGVRRAYNNPDNKLRASVLADPAFTRRNTRDNTPCVLHVEMVKGNKVTVDVAAKGGGSENKSKFKMMNPSDSIVDWVIEMLPQMGAGWCPPGMLGIGIGGTAEHCVLLAKKALMEPIDMAQLKQRGPQTDIERLRIEIFDKVNALGIGAQGLGGLSTILDVKIMDAPCHAAGKPVAMIPNCAATRHAHFTLDGSGPTFLERPKLDEWPEVHWAPDSAARRVDLDTLTQEEVQSWKAGDRLLLNGKMLTGRDAAHKRIKDMLAKGEELPVDFKGRVIYYVGPVDPVRDEVVGPAGPTTATRMDSFSDTMLDLGLLASVGKAERGPAATQSIANHKSAYLMAVGGAAYLVARAIKEAKVVGFEDLGMEAIYEFTVEDMPVTVAVDSGGQNVHQLAPLVWKKKIAEEHLLPA”, for which the “soluble on expression in E. coli” value is “not soluble”.
With “SNAMQRANREHLEIISLEEISMLVSSDFDLPEVLQHVTAKVATQLKVSVCNIYLREGDEVVLAATHGFDPAFIGKIRIKIGDGITGSVARDGQYISLSRASQDPRYRYFPELQEEKYNSMLSFPIGDKKEVYGVINLNTTSIRSFHEDEIYFVSIIANLILTAIKLRQQVASSRKAAEASA” the entry was “soluble”; with “MELFTEAWAQAYCRKLNESEAYRKAASTWEGSLALAVRPDPKAGFPKGVAVVLDLWHGACRGAKAVEGEAEADFVIEADLATWQEVLEGRLEPLSALMRGLLELKKGTIAALAPYAQAAQELVKVAREVA”, “soluble”.
With “MNFIIEPGSLADIDELERLYDELNDHLSATINYPGWIKGIYPVRENAAAGVDDNSLFVARCDGRIAGSVILDHQPEKAYENIVWKIDADYSYIFVVRTFVVHPSFLQMGVGHALMDFSLELALKSEMKSIRLDVYEKNLPAISLYEKCGFEYIDTVDLGLGHYGLDWFKLYEKVILEHHHHHH” the entry was “soluble”; with “MPSARLQQQFIRLWQCCEGKSQDTTLNELAALLSCSRRHMRTLLNTMQDRGWLTWEAEVGRGKRSRLTFLYTGLALQQQRAEDLLEQDRIDQLVQLVGDKATVRQMLVSHLGRSFRQGRHILRVLYYRPLRNLLPGSALRRSETHIARQIFSSLTRINEENGELEADIAHHWQQISPLHWRFFLRPGVHFHHGRELEMDDVIASLKRINTLPLYSHIADIVSPTPWTLDIHLTQPDRWLPLLLGQVPAMILPREWETLSNFASHPIGTGPYAVIRNSTNQLKIQAFDDFFGYRALIDEVNVWVLPEIADEPAGGLMLKGPQGEEKEIESRLEEGCYYLLFDSRTHRGANQQVRDWVSYVLSPTNLVYFAEEQYQQLWFPAYGLLPRWHHARTIKSEKPAGLESLTLTFYQDHSEHRVIAGIMQQILASHQVTLKIKEIDYDQWHTGEIESDIWLNSANFTLPLDFSVFAHLCEVPLLQHCIPIDWQADAARWRNGEMNLANWCQQLVASKAMVPLLHHWLIIQGQRSMRGLRMNTLGWFDFKSAWFAPPDP”, “not soluble”.
With “MGRNRIKKVTERLPLPPNARRVEDPEMNMSREVVEDPGVPGTQDVTFAVAEVNGVETGRLPVANVVVTPAHEAVVRVGTKPGTEVPPVIDGSIWDAIAGCEAGGNWAINTGNGYYGGVQFDQGTWEANGGLRYAPRADLATREEQIAVAEVTRLRQGWGAWPVCAARAGAR” the entry was “soluble”; with “VKKNGLGEIKSIYIDDNVSGSGFERRGIYELKRDVMEGKINLLVLKDLSRLGRNNAKTLLFLDFLEENGVRVVTFDGRYDSLKDNDIVGIETWFNERYILDISRKIRANLRFKIQKGEYIGHAPFGYEKSPYEKNRLIVNEEEAGIVRRIYSLYKEGYGYSYIAGILNSEGVKSPSNGRWNPTAIRRILLNRVYTGDTVQGVSEKISFKSKKTRRLPKERWVITENTHEPIVSKEEYEEIQRIRNNKNARPVPHKGIIHVFRGSIFCGGCGSVMFARKRHNRPMSYICSSYAKEGRTACTSHSIREKDLCEVVLDDVAKLLDDENMVNKILQKIDLAGAAEDYQTLREKLLKQMEAKQKQQEILYQDRLENKISESLFLRMNNRLENRISEIKREIAQLDLRKSEFVTSEEKIAKLKNYITNNGITNEIVKIVINRIIVFDKGDNYLEEKWNLNLSQKEKRYIELYGAVLIEYGF”, “soluble”; with “MSAISSFVLECAHAGRWVRGLMALQEQHLPAEPSMRVACVALAQAAAPHSWAAALCLLRPSDALRHPQEVCKTVDTIARHAQLPIDVFESSMEALLLSLQQLSQSKSHPASGSSRQLASIGPCEALGLATPSTPIQQQVFLSATQWCGWETAARLLACLPSPLPQACVERVQELRTLRHRILHDVGPFCHWGSRAALSSVIGSAGGPLPASAQGTSLAEQLERMEPSPARRYSARDRRELSWLRDHKRQRLLQRTREEEDMLTRQAAEDVAPSALSVCAALRAVTRLPSAASVTAPHVLCRHVLTLSQSRRLTPDIALLYGRAAGLCTPHSWEATVDTLNRAEVRDARLHRQLTTWVISRGSWRAALERLSQLHRDTSSAVPQRSGNNTGDLHRGGDAAASFDCVQRTAVPASYLHRVVPQVSRPWCRLVSSRHSTASLLRQIAGALAGGVRLDEVQLSEAGKEWAANGRWEAALALYYRFPLPEFQKYATRSLVTARPALPPVPSVSHPPSSCLQIGSDPLPGSPSKDSAMFYARTVLELLVPRDGVRYDSASPPRPAPPLGTYPACLVIDAAADWSEAVAVFRACVRRGTRCNPQLLSTLMRRQDLPPQELRQILKSYPAAVNDGVRRRAKEGFGVE”, “not soluble”.
As to “MSLRSTLAGTVRTQQGEIYLNGDADWSQIENWRARVTAKGSKVRITVPPMVRMDVSPDVVFEATPNLFTLDGRVDVPWARIVVHDLPESAVGVSSDVVMLNDNLQPEEPKTASIPINSNLIVHVGNNVRIDAFGLKARLTGDLNVVQDKQGLGLNGQINIPEGRFHAYGQDLIVRKGELLFSGPPDQPYLNIEAIRNPDATEDDVIAGVRVTGLADEPKAEIFSDPAMSQQAALSYLLRGQGLESDQSDSAAMTSMLIGLGVAQSGQIVGKIGETFGVSNLALDTQGVGDSSQVVVSGYVLPGLQVKYGVGIFDSIATLTLRYRLMPKLYLEAVSGVDQALDLLYQFEFEGHHHHHH”, the “soluble on expression in E. coli” value is given as “soluble”.
As for “MGSDKIHHHHHHMSTLDQSGTFHLAGRNIRRLGYGAMQLAGKGVFGPPKDREEAIAVVREAVDSGVNHIDTSDFYGPHITNQIIREALHPYADDLLIVTKVGATRGEDASWNAAFSKEELTQAVHDNLRNLGKEVLDVVNLRAMFDVHGPAEGSLAAPLEVLADLQRQGLIRHIGVSNVTPRQITEAGEIVEIVCVQNQYNLAHRQDDALIDTLAAQGIAYVPFFPLGGFSPLQSTVLSDVATQLDASPLQVALAWLLKRSSNILVIPGTSSRAHLRQNLAAASLDLPDSAMTALAAIGG”, the “soluble on expression in E. coli” value was “not soluble”.
“GPGSMLSTIKTRPQGPYCGDYFSIVEGRVDFPVDLDTFDISLTISGDVEECKNEPYVYDEVSGNVELTNAQDPGDCLGSILRRNQLTLMVTYHPDDDKISLDFGIAVVNLSPCP”: the “soluble on expression in E. coli” value is “not soluble”.
With “AFMQDRLKIMRQQNPAASLQHQWVDYEQISSHLKRAVIAAEDARFLQHQGFDYKAIETAWKKNLKQRKWAAGGSTISQQLAKNLFLSTEKTVWRKSRETLITLMLEEFLTKRRILEIYLNIIEWGDGIFGIEAAARHYFGISAASLTPAQAAWLASIIPNPRFYDTRRTLPKLLNKSRIILSRLPAAKIP” the entry was “not soluble”.
“MILRASVLSALLLVGLGAAPKHSVSANDKRMQDNLVSVIEKQTNKKVRILEIKPLKSSQDLKMVVIEDPDTKYNIPLVVSKDGNLIIGLSNIFFSNKSDDVQLVAETNQKVQALNATQQNSAKLNAIFNEIPADYAIELPSTNAANKDKILYIVSDPMCPHCQKELTKLRDHLKENTVRMVVVGWLGVNSAKKAALIQEEMAKARARGASVEDKISILEKIYSTQYDINAQKEPEDLRTKVENTTKKIFESGVIKGVPFLYHYKA”: the “soluble on expression in E. coli” value was “not soluble”.
Regarding “MSLRVYVTGNITVDETWSIPDIPKKGASIHGVKVSQDIGGKGANQAIILSRCGIETRLIAATGNDSNGAWIRQQIKNEPLMLLPDGHFNQHSDTSIILNSADGDNAIITTTAAADTFSLDEMIPHMADAVAGDILLQQGNFSLDKTRALFQYARSRGMTTVFNPSPVNPDFCHLWPLIDIAVVNESEAELLQPYGVKTLVITQGAAGAWLVQEGQRQFCPAVPAEALDTTGAGDTFLAVMLASALLRGVAPDALALAHASRAAAITVSRRGTLSAFPGSRELAALLTTDGAEGHHHHHH”, the “soluble on expression in E. coli” value is on record as “soluble”.
With “SSNAKADQASSDAQTANAKADQASNDANAARSDAQAAKDDAARANQRADNAA”, the “soluble on expression in E. coli” value is “soluble”.
For the sequence “MPIVNQSSLVPYSAEQMYQLVNDYEKYPQFLSGCIGAKTISRGNNELEAELQIQKLGISQSFSTHNKMLPNERIEMKLVNGPFRQLQGAWNFQPFDEQSCKISLYLEFEFSNPVVGMVFGKIFNELTLKMVNAFKQRAKEVYGVLEHHHHHH”, the “soluble on expression in E. coli” value was “soluble”.
